Results from patent EP1481685A1.
Where two headings read alike, the source gives them in different places.

Assays:
Experiment in all cases: cell-based or functional assay
[1] = molecular target: adenylyl cyclase (AC) in rat spinal cord lysates / membranes (major isoforms AC type 5 and 6)
[2] = molecular target: adenylyl cyclase (AC) in rat dorsal root ganglia (DRG) lysates (predominant isoforms AC type 4 and 6)
[3] = molecular target: adenylyl cyclase (AC) in rat spinal cord lysates / membranes (major isoforms AC type 5 and 6); remark: listed apart in the source

## PAM (Protein Associated with Myc), full length, purified from HeLa cells (from UniProt O75592 1-4678)
[1]
  inhibition of Gαs-stimulated AC activity, spinal cord lysates of control animals, 30 nM PAM (% inhibition at 30 nM): 50
[2]
  inhibition of Gαs-stimulated AC activity, DRG lysates, 30 nM PAM (% inhibition at 30 nM): 32
[3]
  inhibition of Gαs-stimulated AC activity, spinal cord lysates from animals treated 1 hour with formalin, 30 nM PAM (% inhibition at 30 nM): 25
  inhibition of Gαs-stimulated AC activity, spinal cord lysates from rats 96 hours after zymosan injection, 30 nM PAM (% inhibition at 30 nM): 70
  inhibition of Gαs-stimulated AC activity, spinal cord lysates of control animals, 30 nM PAM (% inhibition at 30 nM): 49
  inhibition of Gαs-stimulated AC activity, spinal cord preparations of zymosan-treated animals: 75 % inhibition
